Laboratory results published in the supplement of paper PMC10567573.

B1: CASP6 (parent)
chain: TCADRDNLTRRFSDLGFEVKCFND
B2: FCHO1 (parent)
chain: FSDPSQSDPETKDFWLNMAALTEA

Variants of: B1
Assay: protein stability index of a GFP-peptide fusion (GPS, HEK-293T) (PSI 1-6); higher = more stable
Conditions: c terminus: a fixed tail appended
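Further: lentivirally expressed fusions sorted by FACS into six bins by GFP to DsRed ratio, PSI derived from sequencing read proportions per bin multiplied by bin number.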

In order of rising protein stability index:
1. D24V  1.23
2. N23W  1.41
3. E18F  1.78
4. N23C  1.8
5. D24I  1.87
6. V19C  1.95
7. D24Y  2.04
8. D24F  2.11
9. D24W  2.14
10. C21F  2.16
11. D24L  2.17
12. K20Y  2.2
13. D24A  2.21
14. E18M  2.22
15. E18Y  2.29
16. N23Y  2.34
17. D24C  2.41
18. K20I  2.42
19. F17W  2.44
20. E18H  2.48
21. N23I  2.49
22. N23F  2.51
23. C21I  2.52
24. D24T  2.54
25. E18W  2.55
26. K20W  2.56
27. D24S  2.57
28. V19L  2.57
29. K20M  2.57
30. D24M  2.6
31. F17Y  2.62
32. C21W  2.63
33. E18I  2.65
34. D24G  2.66
35. D24R  2.67
36. C21V  2.67
37. V19F  2.69
38. N23H  2.71
39. K20C  2.75
40. V19W  2.76
41. E18C  2.76
42. N23V  2.81
43. E18V  2.82
44. K20V  2.83
45. C21L  2.85
46. K20F  2.87
47. E18G  2.87
48. K20H  2.89
49. E18S  2.89
50. D24E  2.94
51. D24H  2.95
52. D24N  2.97
53. C21Y  2.97
54. N23M  2.98
55. K20L  3
56. D24K  3.02
57. E18T  3.05
58. E18Q  3.1
59. N23Q  3.12
60. E18R  3.14
61. K20T  3.15
62. C21P  3.17
63. K20S  3.17
64. C21M  3.2
65. N23G  3.23
66. D24P  3.24
67. D24Q  3.24
68. E18A  3.25
69. F22W  3.28
70. N23T  3.28
71. E18K  3.3
72. K20R  3.32
73. V19H  3.36
74. K20Q  3.37
75. F22G  3.37
76. N23D  3.41
77. N23K  3.41
78. V19I  3.44
79. E18N  3.44
80. V19R  3.48
81. V19M  3.49
82. E18P  3.49
83. C21G  3.5
84. V19Y  3.5
85. N23A  3.52
86. C21A  3.53
87. K20G  3.54
88. K20P  3.58
89. K20E  3.6
90. F17V  3.61
91. N23P  3.61
92. V19A  3.62
93. N23S  3.66
94. C21R  3.72
95. C21H  3.72
96. F22R  3.73
97. K20N  3.75
98. K20A  3.76
99. V19S  3.8
100. N23L  3.8
101. C21N  3.82
102. F22C  3.83
103. F22S  3.84
104. V19Q  3.85
105. E18D  3.86
106. F22H  3.86
107. F22L  3.89
108. N23R  3.89
109. V19N  3.9
110. F22I  3.9
111. F22V  3.93
112. V19K  3.94
113. F22M  3.96
114. C21T  3.98
115. F22Y  3.98
116. C21S  4.01
117. C21Q  4.05
118. V19G  4.08
119. K20D  4.14
120. F22Q  4.15
121. C21D  4.17
122. C21K  4.2
123. V19T  4.24
124. C21E  4.3
125. V19E  4.31
126. F22P  4.32
127. V19P  4.38
128. F22E  4.46
129. F22A  4.54
130. F22N  4.58
131. N23E  4.66
132. F22K  4.72
133. F22T  4.73
134. V19D  4.93
135. F22D  4.95

Variants of: B2
Assay: as above
Conditions: c terminus: a fixed tail appended

In order of rising protein stability index:
1. D13N  1.27
2. D3V  1.45
3. D13S  1.47
4. D3K  1.48
5. E23F  1.59
6. D3H  1.69
7. D3L  1.74
8. Q6W  1.75
9. D13C  1.77
10. D3Y  1.78
11. Q6Y  1.81
12. D13L  1.82
13. N17D  1.85
14. D8W  1.86
15. E10F  1.94
16. D8N  1.95
17. D3M  1.96
18. A19H  1.96
19. N17I  1.98
20. S2H  1.99
21. S7W  2
22. P4R  2.02
23. D13H  2.02
24. E10K  2.04
25. E10C  2.06
26. E23M  2.08
27. T11F  2.09
28. L16C  2.1
29. T11L  2.13
30. E10Y  2.14
31. A20W  2.16
32. P4H  2.16
33. E10S  2.2
34. L16R  2.21
35. D8H  2.21
36. P4M  2.21
37. L16V  2.22
38. D8Y  2.23
39. A19C  2.23
40. Q6G  2.25
41. D13Y  2.25
42. A19S  2.29
43. E10R  2.29
44. L16H  2.3
45. E23L  2.3
46. L16W  2.31
47. E10L  2.33
48. T22S  2.34
49. L16K  2.36
50. D8F  2.37
51. D13T  2.37
52. D13P  2.37
53. P4G  2.38
54. L21Y  2.38
55. L21C  2.4
56. D3P  2.4
57. S2Q  2.4
58. N17C  2.41
59. N17L  2.43
60. A19L  2.44
61. P4L  2.45
62. E10I  2.45
63. A19I  2.47
64. T11K  2.49
65. N17W  2.49
66. N17S  2.49
67. A24G  2.5
68. K12W  2.52
69. S5V  2.54
70. L16M  2.55
71. Q6L  2.55
72. L21H  2.55
73. L16T  2.56
74. M18V  2.56
75. Q6N  2.56
76. N17A  2.56
77. D8R  2.57
78. P9S  2.6
79. E23G  2.61
80. K12L  2.62
81. M18T  2.62
82. P9N  2.63
83. A20Q  2.63
84. A20K  2.63
85. D8L  2.63
86. S7F  2.63
87. L21A  2.63
88. E10V  2.63
89. S7R  2.64
90. K12R  2.65
91. P9Y  2.65
92. A20G  2.65
93. E10P  2.66
94. N17G  2.67
95. A24L  2.67
96. P9C  2.68
97. S7Y  2.69
98. T11I  2.7
99. D8S  2.71
100. D3W  2.72
101. L16Y  2.73
102. N17M  2.73
103. S7T  2.74
104. A19E  2.74
105. D8G  2.75
106. L21T  2.75
107. P9F  2.76
108. P9G  2.77
109. L21M  2.77
110. M18C  2.78
111. A19K  2.78
112. P9R  2.8
113. A24W  2.8
114. S2I  2.8
115. D8T  2.81
116. P4A  2.81
117. P9I  2.82
118. S5T  2.84
119. S5L  2.84
120. K12V  2.86
121. E23Q  2.86
122. T11H  2.87
123. A24H  2.89
124. S2F  2.89
125. T22Q  2.9
126. N17K  2.91
127. T22N  2.93
128. L21K  2.95
129. L21R  2.95
130. A20P  2.96
131. T22H  3
132. E10D  3
133. M18A  3.02
134. T22M  3.02
135. N17T  3.03
136. K12C  3.04
137. T11G  3.04
138. K12M  3.07
139. K12P  3.1
140. D8V  3.11
141. T11N  3.12
142. M18S  3.12
143. K12T  3.15
144. T11Q  3.15
145. M18W  3.18
146. A19R  3.21
147. S5Q  3.21
148. K12G  3.23
149. T22F  3.23
150. A24N  3.23
151. K12S  3.26
152. F1Y  3.26
153. M18G  3.27
154. T22W  3.27
155. L21D  3.27
156. S2Y  3.28
157. Q6D  3.3
158. L21Q  3.3
159. Q6E  3.35
160. A24K  3.38
161. S7H  3.39
162. L16N  3.48
163. N17E  3.49
164. M18P  3.53
165. L16Q  3.59
166. A20E  3.61
167. K12N  3.66
168. F14L  3.69
169. F1R  3.73
170. F14Y  3.98
171. F14V  4.01
172. L16P  4.08
173. F1I  4.11
174. F14A  4.17
175. S2K  4.22
176. M18D  4.25
177. F1L  4.25
178. W15F  4.3
179. K12D  4.39
180. F1K  4.42
181. F14H  4.51
182. F1N  4.52
183. F14T  4.57
184. F14P  4.58
185. W15L  4.59
186. S2E  4.62
187. W15E  4.68
188. F1H  4.7
189. W15H  4.73
190. F1S  4.74
191. F14Q  4.75
192. F14N  4.76
193. W15N  4.79
194. W15K  4.85
195. F1V  4.86
196. F1E  4.97
197. F14E  4.99
198. L16D  5.04
199. W15D  5.32
